From PMC8279307

Biological target: SARS-CoV-2 Spike receptor-binding domain (SARS-CoV-2) (UniProt P0DTC2)
Test: AUC

## SARS-CoV-2 Spike receptor-binding domain (from UniProt P0DTC2) (domain or fragment)
  stoichiometry N: 2
